Values belong to the molecule of their own block, whether it stands above or below them.
Key:
[1] = Circular dichroism, variable temperature measurement (Tm) and spectra before and after heating; format: physicochemical; settings: His6-tagged, 0.5 mg/ml in PBS, CD at 221 nm, 20 to 90° C.
Description: Circular dichroism (CD) analysis was carried out to determine the melting temperatures (Tm) and assess potential changes in the secondary structure of the inventive polypeptides as a result of the amino acid substitutions.
Purified His6-tagged Z variants were diluted to 0.5 mg/ml in PBS. For each diluted Z variant, a CD spectrum at 250-195 nm was recorded at 20° C. A variable temperature measurement (VTM) was performed to determine the Tm. In the VTM, the absorbance was measured at 221 nm while the temperature was raised from 20 to 90° C., with a temperature slope of 5° C./min. After the VTM, a second CD spectrum at 250-195 nm was recorded at 20° C. The CD measurements were performed on a Jasco J-810 spectropolarimeter (Jasco Scandinavia AB) using a cell with an optical path-length of 1 mm.

human HER2-Fc = target: T1, human HER2-Fc (Homo sapiens, UniProt P04626); assay: Biacore 2000 comparative kinetic analysis, HER2; format: binding; settings: for KDInv/KDOrig: original set to 1.0; for KD(2w)/KD(0): KD after stability test relative to KD before
T1 construct: Fc; purchased R&D Systems 1129-ER-050
Description: (§1) A set of polypeptides showing improved stability properties in Example 12 were further assessed in terms of preserved binding capacities to their targets after introduction of alterations in the scaffold, as well as after having been subjected to the stability test, i.e. incubated at 37° C. for 2 weeks. Comparative kinetic constants (kon and koff) and affinities (KD) were determined using a Biacore 2000 instrument. The target proteins human HER2-Fc (R&D Systems, cat. no. 1129-ER-050), human PDGF-Rβ (R&D Systems, cat. no. 385-PR-100/CF), human FcRn (Biorbyt, cat. no. orb 84388) and human CAIX (R&D Systems, cat. no. 2188-CA), respectively, were immobilized on the carboxylated dextran layer surface of CM5 chips (GE Healthcare). The immobilization was performed using amine coupling chemistry according to the manufacturer's protocol and using HBS-EP as running buffer. One flow cell surface on the chip was activated and deactivated for use as blank during analyte injections. The immobilization level of target protein on the respective surface was approximately 850 RU for HER2, 2200 RU for PDGF-Rβ, 750 for FcRn and 580 RU for CAIX.
(§2) HBS-EP (HER2, PDGF-Rβ, CAIX) or a pH 6.0 Na2HPO4/citric acid buffer (126 mM Na2HPO4, 37 mM citric acid) (FcRn) was used as running buffer and the flow rate was 30 μl/min in the binding experiments performed at 25° C. as further described below.
The Z variants Z02891 (SEQ ID NO:27), Z17341 (SEQ ID NO:28), and Z17342 (SEQ ID NO:29) targeting HER2 were diluted in running buffer to final concentrations of 3.33, 10, 30 and 90 nM and injected for 5 minutes, followed by 30 minutes of dissociation in running buffer. Regeneration by four pulses alternating between 10 mM HCl and 10 mM NaOH followed by 5 min equilibration in running buffer was applied after each analyte injection.
(§3) Kinetic constants were calculated from the sensorgrams using the Langmuir 1:1 model (HER2, FcRn, CAIX) or the 1:1 binding with mass transfer model (PDGF-Rβ) of the BiaEvaluation software 4.1 (GE Healthcare). Curves of the blank surface were subtracted from the curves of the ligand surfaces and the data from the buffer cycles were subtracted from the data of the test-sample cycles to correct for any drift in signal.

human FcRn = target: T2, human FcRn (Homo sapiens, UniProt P55899); assay: Biacore 2000 comparative kinetic analysis, FcRn; format: binding; settings: for KDInv/KDOrig: original set to 1.0
T2 construct: purchased Biorbyt orb 84388
Description: Comparative kinetic constants (kon and koff) and affinities (KD) were determined using a Biacore 2000 instrument. The target proteins human HER2-Fc (R&D Systems, cat. no. 1129-ER-050), human PDGF-Rβ (R&D Systems, cat. no. 385-PR-100/CF), human FcRn (Biorbyt, cat. no. orb 84388) and human CAIX (R&D Systems, cat. no. 2188-CA), respectively, were immobilized on the carboxylated dextran layer surface of CM5 chips (GE Healthcare). The immobilization was performed using amine coupling chemistry according to the manufacturer's protocol and using HBS-EP as running buffer. One flow cell surface on the chip was activated and deactivated for use as blank during analyte injections.
as §2
Regeneration by three pulses of HBS-EP followed by 10 min equilibration in running buffer was applied after each analyte injection.
as §3

human PDGF-Rβ = target: T3, human PDGF-Rβ (Homo sapiens, UniProt P09619); assay: Biacore 2000 comparative kinetic analysis, PDGF-Rβ; format: binding; settings: for KDInv/KDOrig: original set to 1.0
T3 construct: purchased R&D Systems 385-PR-100/CF
Description: as §1, §2
The Z variants Z15805 (SEQ ID NO:30), Z17343 (SEQ ID NO:31), and Z17344 (SEQ ID NO:32) targeting PDGF-R13 were diluted in running buffer to final concentrations of 6.67, 20, 60 and 180 nM and injected for 5 minutes, followed by 20 minutes of dissociation in running buffer. Regeneration by three pulses of 10 mM NaOH followed by 5 min equilibration in running buffer was applied after each analyte injection.
as §3

[2] = Accelerated stability study of C5 binding polypeptides, 2 weeks at 37° C., SDS-PAGE and Reversed Phase HPLC (RPC); format: physicochemical
Description: The stability was measured by the appearance of new variants after the stability testing by SDS-PAGE and Reversed Phase HPLC (RPC). In both analyses, the initial sample and the one subjected to the stability study were run in parallel. For the SDS-PAGE, 7.5 μg protein was loaded into each well.
The purified proteins were formulated in 25 mM NaP/125 mM NaCl pH 7.0 and subjected to an accelerated stability study for 2 weeks at 37° C. The stability was measured by the appearance of new variants after the stability testing by SDS-PAGE and Reversed Phase HPLC (RPC). In both analyses, the initial sample and the one subjected to the stability study were run in parallel. For the SDS-PAGE, 7.5 μg protein was loaded into each well.

[3] = Three month stability test at 37° C., RPC main peak
Description: (Example 2) were subjected to a longer 3 month stability test at 37° C. The setup of the stability test and the analysis by RPC was as described in Example 2. The evaluation of the stability was made by measuring the main peak of the chromatogram and calculating the corresponding percentage of the total protein content.

[4] = (0) prior to stability test, comparative, not absolute
[5] = (2w) after 2 weeks at 37° C., comparative, not absolute
[6] = (0) prior to stability test, pH 6.0
[7] = (2w) after 2 weeks at 37° C., pH 6.0
[8] = KD after stability test relative to KD before
[9] = compared with original Z variant

T3 sequence (P09619 with tags, fused parts or gaps limits assumed): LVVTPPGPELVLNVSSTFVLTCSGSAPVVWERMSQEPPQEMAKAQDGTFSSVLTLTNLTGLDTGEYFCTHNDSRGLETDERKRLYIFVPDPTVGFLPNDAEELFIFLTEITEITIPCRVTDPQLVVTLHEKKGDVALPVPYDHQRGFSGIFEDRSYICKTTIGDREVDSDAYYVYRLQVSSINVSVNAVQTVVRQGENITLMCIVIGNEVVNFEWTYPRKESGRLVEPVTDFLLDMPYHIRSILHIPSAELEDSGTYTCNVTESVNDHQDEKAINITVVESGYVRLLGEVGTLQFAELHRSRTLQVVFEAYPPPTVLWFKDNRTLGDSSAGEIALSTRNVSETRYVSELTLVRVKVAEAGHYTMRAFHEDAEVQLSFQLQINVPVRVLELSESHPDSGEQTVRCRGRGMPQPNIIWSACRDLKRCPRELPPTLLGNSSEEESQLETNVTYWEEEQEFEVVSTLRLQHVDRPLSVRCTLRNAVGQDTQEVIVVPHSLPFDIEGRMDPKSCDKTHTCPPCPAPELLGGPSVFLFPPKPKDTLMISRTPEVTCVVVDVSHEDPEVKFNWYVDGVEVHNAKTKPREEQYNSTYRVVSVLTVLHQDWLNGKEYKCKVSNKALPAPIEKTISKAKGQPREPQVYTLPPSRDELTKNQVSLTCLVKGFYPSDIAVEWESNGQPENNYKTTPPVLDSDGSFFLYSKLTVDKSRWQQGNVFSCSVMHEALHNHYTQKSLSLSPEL

KDInv/KDOrig (human FcRn; (0) prior to stability test): 1.93
ka (human FcRn; [6]): 1.82e+06 M/s
kd (human FcRn; [6]): 0.01 s⁻¹
Kd (human FcRn; (0) prior to stability test, pH 6.0, comparative, not absolute): 5.5 nM
KDInv/KDOrig (human FcRn; (2w) after 2 weeks at 37° C.): 3.46
ka (human FcRn; [7]): 1.28e+06 M/s
kd (human FcRn; [7]): 0.00809 s⁻¹
Kd (human FcRn; (2w) after 2 weeks at 37° C., pH 6.0, comparative, not absolute): 6.3 nM
KD(2w)/KD(0) (human FcRn; [8]): 1.14
effect of scaffold substitutions on the affinity (human FcRn; [9]): more negative effect on the affinity
Kd (human FcRn; range of magnitude): ~1 nM
Molecule: Z17348: inventive FcRn binding Z variant; D36R, D37Q, S39E, N52S, D53E (AEAKYAKEQDAAAHEIRWLPNLTFDQRVAFIHKLARQPEQSSELLSEAKKLSESQAPK; Engineered FcRn binding Z variant)
Tm (° C.) [1]: 44 °C

ka (human HER2-Fc; (0) prior to stability test): 894000 M/s
kd (human HER2-Fc; (0) prior to stability test): 0.00157 s⁻¹
Kd (human HER2-Fc; [4]): 1.8 nM
KDInv/KDOrig (human HER2-Fc; (0) prior to stability test): 33
ka (human HER2-Fc; (2w) after 2 weeks at 37° C.): 649000 M/s
kd (human HER2-Fc; (2w) after 2 weeks at 37° C.): 0.0015 s⁻¹
Kd (human HER2-Fc; [5]): 2.3 nM
KDInv/KDOrig (human HER2-Fc; (2w) after 2 weeks at 37° C.): 37
KD(2w)/KD(0) (human HER2-Fc): 1.31
effect of scaffold substitutions on the affinity (human HER2-Fc; [9]): more negative effect on the affinity
Kd (human HER2-Fc; range of magnitude): ~1 nM
Molecule: Z17342: inventive HER2 binding Z variant; D36R, D37Q, S39E, N52S, D53E (AEAKYAKEMRNAYWEIALLPNLTNQQKRAFIRKLYRQPEQSSELLSEAKKLSESQAPK; Engineered HER2 binding Z variant)
Tm (° C.) [1]: 62 °C

ka (human PDGF-Rβ; (0) prior to stability test): 5.15e+07 M/s
kd (human PDGF-Rβ; (0) prior to stability test): 0.0616 s⁻¹
Kd (human PDGF-Rβ; [4]): 1.2 nM
KDInv/KDOrig (human PDGF-Rβ; (0) prior to stability test): 6.19
ka (human PDGF-Rβ; (2w) after 2 weeks at 37° C.): 5.62e+07 M/s
kd (human PDGF-Rβ; (2w) after 2 weeks at 37° C.): 0.0623 s⁻¹
Kd (human PDGF-Rβ; [5]): 1.1 nM
KDInv/KDOrig (human PDGF-Rβ; (2w) after 2 weeks at 37° C.): 3.88
KD(2w)/KD(0) (human PDGF-Rβ; [8]): 0.93
effect of scaffold substitutions on the affinity (human PDGF-Rβ; [9]): more negative effect on the affinity
Kd (human PDGF-Rβ; range of magnitude): ~1 nM
Molecule: Z17344: inventive PDGF-Rβ binding Z variant; D36R, D37Q, S39E, N52S, D53E (AEAKYAKELIEAAAEIDALPNLTRRQWNAFIKKLVRQPEQSSELLSEAKKLSESQAPK; Engineered PDGFRbeta binding Z variant)
Tm (° C.) [1]: 42 °C

Second part, the molecule before the results:

Molecule: Z02891: original Z variant polypeptide targeting HER2, His6-tagged [reference compound]
Tm (° C.) [1]: 70 °C
ka (human HER2-Fc; (0) prior to stability test): 1.33e+06 M/s
kd (human HER2-Fc; (0) prior to stability test): 7.1e-05 s⁻¹
Kd (human HER2-Fc; [4]): 0.054 nM
KDInv/KDOrig (human HER2-Fc; (0) prior to stability test): 1.0
ka (human HER2-Fc; (2w) after 2 weeks at 37° C.): 1.15e+06 M/s
kd (human HER2-Fc; (2w) after 2 weeks at 37° C.): 7.19e-05 s⁻¹
Kd (human HER2-Fc; [5]): 0.062 nM
KDInv/KDOrig (human HER2-Fc; (2w) after 2 weeks at 37° C.): 1.0
KD(2w)/KD(0) (human HER2-Fc): 1.17

B1: PSI0383: C5 binding polypeptide fused to albumin binding domain; ND to SE in positions 52-53 (protein)
chain: AEAKYAKEVLEAWDEIDRLPNLTIEQWLAFINKLDRQPEQSSELLSEAKKLSESQAPKVEGSLAEAKEAANAELDSYGVSDFYKRLIDKAKTVEGVEALKDAILAALP
modifications: Engineered C5 binding Z variant
Main peak (% of total protein) ([2]; RPC, after 2 weeks at 37° C., 25 mM NaP/125 mM NaCl pH 7.0): 91%
2 weeks, 37° C. Main peak (% of total protein) ([2]; RPC, data from Example 2 repeated in Table 8): 91%
stability when compared with PSI0242 ([2]; conclusion from Table 1, 2 weeks at 37° C.): increased stability
stability after 3 months at 37° C. compared with PSI0242 after 2 weeks [3]: higher proportion of protein in the original form
3 months, 37° C. Main peak (% of total protein) ([3]; RPC): 59%
